Test results reported in PMC2783756 (Biochemistry, 2009).

Columns and labels:
[1] = system: medium-chain acyl-CoA dehydrogenase; settings: activity drops significantly for changes in temperature as small as 3 °C; ref [21]; cited from earlier work
[2] = system: NKX3.1 homeodomain; assay: CD thermal unfolding of NKX3.1 constructs; assay type: physicochemical; settings: with and without His tag sequence; within error (±1 °C)
[3] = system: DNA; settings: previously observed for N-terminal construct; ref [6]; cited from earlier work

B1: Y42H allele of human medium-chain acyl-CoA dehydrogenase: Y42H allele of human medium-chain acyl-CoA dehydrogenase (protein, UniProt P11310 26-421, looked up, variant Y42H)
Medium-chain specific …: KANRQREPGLGFSFEFTEQQKEFQATARKFAREEIIPVAAEHDKTGEYPVPLIRRAWELGLMNTHIPENCGGLGLGTFDACLISEELAYGCTGVQTAIEGNSLGQMPIIIAGNDQQKKKYLGRMTEEPLMCAYCVTEPGAGSDVAGIKTKAEKKGDEYIINGQKMWITNGGKANWYFLLARSDPDPKAPANKAFTGFIVEADTPGIQIGRKELNMGQRCSDTRGIVFEDVKVPKENVLIGDGAGFKVAMGAFDKTRPVVAAGAVGLAQRALDEATKYALERKTFGKLLVEHQAISFMLAEMAMKVELARMSYQRAAWEVDSGRRNTYYASIAKAFAGDIANQLATDAVQILGGNGFNTEYPVEKLMRDAKIYQIYEGTSQIQRLIVAREHIDKYKN
In the case of B1, the “Thermal stability and activity” value [1] is given as “lower thermal stability”.

B2: 114–184: NKX3.1 homeodomain construct, recombinant with N-terminal hexahistidine sequence (protein, UniProt Q99801 114-184, looked up, fragment)
chain: PRLPQTPKQPQKRSRAAFSHTQVIELERKFSHQKYLSAPERAHLAKNLKLTETQVKIWFQNRRYKTKRKQL
modifications: N-terminal His6 tag
For B2, the “Effect of His tag on unfolding transition temperature” value [2] was “the same unfolding transition temperature within error”.

B3: 1–184: NKX3.1 (1–184) construct, recombinant with N-terminal hexahistidine sequence (protein, UniProt Q99801 1-184, looked up, fragment)
chain: MLRVPEPRPGEAKAEGAAPPTPSKPLTSFLIQDILRDGAQRQGGRTSSQRQRDPEPEPEPEPEGGRSRAGAQNDQLSTGPRAAPEEAETLAETEPERHLGSYLLDSENTSGALPRLPQTPKQPQKRSRAAFSHTQVIELERKFSHQKYLSAPERAHLAKNLKLTETQVKIWFQNRRYKTKRKQL
modifications: N-terminal His6 tag
In the case of B3, the DNA binding [3] is listed as “weaker DNA binding”.
